# How the values were obtained:
# Assay in all cases: PEPSCAN ELISA, looped peptide, 10 ug/ml
# [1] = target: looped/cyclic peptide … (rabies virus strain ERA)
# [2] = target: looped/cyclic peptide … (rabies virus strain ERA); remark: listed apart in the source
# [3] = target: looped/cyclic peptide … (rabies virus strain ERA); remark: listed apart in the source
# [4] = target: looped/cyclic peptide … (rabies virus strain ERA); remark: listed apart in the source
# [5] = target: looped/cyclic peptide … (rabies virus strain ERA); remark: listed apart in the source
# [6] = target: looped/cyclic peptide … (rabies virus strain ERA); remark: listed apart in the source
# [7] = target: looped/cyclic peptide … (rabies virus strain ERA); remark: listed apart in the source
# [8] = target: looped/cyclic peptide … (rabies virus strain ERA); remark: listed apart in the source
# [9] = target: looped/cyclic peptide … (rabies virus strain ERA); remark: listed apart in the source
# [10] = target: looped/cyclic peptide … (rabies virus strain ERA); remark: listed apart in the source
# [11] = target: looped/cyclic peptide … (rabies virus strain ERA); remark: listed apart in the source
# [12] = target: looped/cyclic peptide … (rabies virus strain ERA); remark: listed apart in the source
# [13] = target: looped/cyclic peptide … (rabies virus strain ERA); remark: listed apart in the source
# [14] = target: looped/cyclic peptide … (rabies virus strain ERA); remark: listed apart in the source
# [15] = target: looped/cyclic peptide … (rabies virus strain ERA); remark: listed apart in the source
# [16] = target: looped/cyclic peptide … (rabies virus strain ERA); remark: listed apart in the source
# [17] = target: looped/cyclic peptide … (rabies virus strain ERA); remark: listed apart in the source
# [18] = target: looped/cyclic peptide … (rabies virus strain ERA); remark: listed apart in the source
# [19] = target: looped/cyclic peptide … (rabies virus strain ERA); remark: listed apart in the source
# [20] = target: looped/cyclic peptide … (rabies virus strain ERA); remark: listed apart in the source
# [21] = target: looped/cyclic peptide … (rabies virus strain ERA); remark: listed apart in the source
# [22] = target: looped/cyclic peptide … (rabies virus strain ERA); remark: listed apart in the source
# [23] = target: looped/cyclic peptide … (rabies virus strain ERA); remark: listed apart in the source
# [24] = target: looped/cyclic peptide … (rabies virus strain ERA); remark: listed apart in the source
# [25] = target: looped/cyclic peptide … (rabies virus strain ERA); remark: listed apart in the source
# [26] = target: looped/cyclic peptide … (rabies virus strain ERA); remark: listed apart in the source
# [27] = target: looped/cyclic peptide … (rabies virus strain ERA); remark: listed apart in the source
# [28] = target: looped/cyclic peptide … (rabies virus strain ERA); remark: listed apart in the source
# [29] = target: looped/cyclic peptide … (rabies virus strain ERA); remark: listed apart in the source
# [30] = target: looped/cyclic peptide … (rabies virus strain ERA); remark: listed apart in the source
# [31] = target: looped/cyclic peptide … (rabies virus strain ERA); remark: listed apart in the source
# [32] = target: looped/cyclic peptide … (rabies virus strain ERA); remark: listed apart in the source
# [33] = target: looped/cyclic peptide … (rabies virus strain ERA); remark: listed apart in the source
# [34] = target: looped/cyclic peptide … (rabies virus strain ERA); remark: listed apart in the source
# [35] = target: looped/cyclic peptide … (rabies virus strain ERA); remark: listed apart in the source
# [36] = target: looped/cyclic peptide … (rabies virus strain ERA); remark: listed apart in the source
# [37] = target: looped/cyclic peptide … (rabies virus strain ERA); remark: listed apart in the source
# [38] = target: looped/cyclic peptide … (rabies virus strain ERA); remark: listed apart in the source
# [39] = target: looped/cyclic peptide … (rabies virus strain ERA); remark: listed apart in the source
# [40] = target: looped/cyclic peptide … (rabies virus strain ERA); remark: listed apart in the source
# [41] = target: looped/cyclic peptide … (rabies virus strain ERA); remark: listed apart in the source
# [42] = target: looped/cyclic peptide … (rabies virus strain ERA); remark: listed apart in the source
# [43] = target: looped/cyclic peptide … (rabies virus strain ERA); remark: listed apart in the source
# [44] = target: looped/cyclic peptide … (rabies virus strain ERA); remark: listed apart in the source
# [45] = target: looped/cyclic peptide … (rabies virus strain ERA); remark: listed apart in the source
# [46] = target: looped/cyclic peptide … (rabies virus strain ERA); remark: listed apart in the source
# [47] = target: looped/cyclic peptide … (rabies virus strain ERA); remark: listed apart in the source
# [48] = target: looped/cyclic peptide … (rabies virus strain ERA); remark: listed apart in the source
# [49] = target: looped/cyclic peptide … (rabies virus strain ERA); remark: listed apart in the source
# [50] = target: looped/cyclic peptide … (rabies virus strain ERA); remark: listed apart in the source
# [51] = target: looped/cyclic peptide … (rabies virus strain ERA); remark: listed apart in the source
# [52] = target: looped/cyclic peptide … (rabies virus strain ERA); remark: listed apart in the source
# [53] = target: looped/cyclic peptide … (rabies virus strain ERA); remark: listed apart in the source
# [54] = target: looped/cyclic peptide … (rabies virus strain ERA); remark: listed apart in the source
# [55] = target: looped/cyclic peptide … (rabies virus strain ERA); remark: listed apart in the source
# [56] = target: looped/cyclic peptide … (rabies virus strain ERA); remark: listed apart in the source
# [57] = target: looped/cyclic peptide … (rabies virus strain ERA); remark: listed apart in the source
# [58] = target: looped/cyclic peptide … (rabies virus strain ERA); remark: listed apart in the source
# [59] = target: looped/cyclic peptide … (rabies virus strain ERA); remark: listed apart in the source
# [60] = target: looped/cyclic peptide … (rabies virus strain ERA); remark: listed apart in the source
# [61] = target: looped/cyclic peptide … (rabies virus strain ERA); remark: listed apart in the source
# [62] = target: looped/cyclic peptide … (rabies virus strain ERA); remark: listed apart in the source
# [63] = target: looped/cyclic peptide … (rabies virus strain ERA); remark: listed apart in the source
# [64] = target: looped/cyclic peptide … (rabies virus strain ERA); remark: listed apart in the source
# [65] = target: looped/cyclic peptide … (rabies virus strain ERA); remark: listed apart in the source
# [66] = target: looped/cyclic peptide … (rabies virus strain ERA); remark: listed apart in the source
# [67] = target: looped/cyclic peptide … (rabies virus strain ERA); remark: listed apart in the source
# [68] = target: looped/cyclic peptide … (rabies virus strain ERA); remark: listed apart in the source
# [69] = target: looped/cyclic peptide … (rabies virus strain ERA); remark: listed apart in the source
# [70] = target: looped/cyclic peptide … (rabies virus strain ERA); remark: listed apart in the source
# [71] = target: looped/cyclic peptide … (rabies virus strain ERA); remark: listed apart in the source
# [72] = target: looped/cyclic peptide … (rabies virus strain ERA); remark: listed apart in the source
# [73] = target: looped/cyclic peptide … (rabies virus strain ERA); remark: listed apart in the source
# [74] = target: looped/cyclic peptide … (rabies virus strain ERA); remark: listed apart in the source
# [75] = target: looped/cyclic peptide … (rabies virus strain ERA); remark: listed apart in the source
# [76] = target: looped/cyclic peptide … (rabies virus strain ERA); remark: listed apart in the source
# [77] = target: looped/cyclic peptide … (rabies virus strain ERA); remark: listed apart in the source
# [78] = target: looped/cyclic peptide … (rabies virus strain ERA); remark: listed apart in the source
# [79] = target: looped/cyclic peptide … (rabies virus strain ERA); remark: listed apart in the source
# [80] = target: looped/cyclic peptide … (rabies virus strain ERA); remark: listed apart in the source
# [81] = target: looped/cyclic peptide … (rabies virus strain ERA); remark: listed apart in the source
# [82] = target: looped/cyclic peptide … (rabies virus strain ERA); remark: listed apart in the source
# [83] = target: looped/cyclic peptide … (rabies virus strain ERA); remark: listed apart in the source
# [84] = target: looped/cyclic peptide … (rabies virus strain ERA); remark: listed apart in the source
# [85] = target: looped/cyclic peptide … (rabies virus strain ERA); remark: listed apart in the source
# [86] = target: looped/cyclic peptide … (rabies virus strain ERA); remark: listed apart in the source
# [87] = target: looped/cyclic peptide … (rabies virus strain ERA); remark: listed apart in the source
# [88] = target: looped/cyclic peptide … (rabies virus strain ERA); remark: listed apart in the source
# [89] = target: looped/cyclic peptide … (rabies virus strain ERA); remark: listed apart in the source
# [90] = target: looped/cyclic peptide … (rabies virus strain ERA); remark: listed apart in the source
# [91] = target: looped/cyclic peptide … (rabies virus strain ERA); remark: listed apart in the source
binder,measurement,setting,value
"human monoclonal antibody CRJA (antibody, V domains shown) VH: EVQLLESGGGLVQPGGSLRLSCAASGFTFSNYAMSWVRQAPGKGLEWVSAISASGHSTYLADSVKGRFTISRDNSKNTLYLQMNSLRAEDTAVYYCAKDREVTMIVVLNGGFDYWGQGTRVTVSS VL: EIVLTQSPATLSLSPGERATLACRASQTASRYLAWYQQKPGQAPRLLIYDTSNRATGIPARFSGSGSGTDFTLSISSLEPEDFAVYYCQQRFNWPWTFGQGTKVEFK",OD,[1],96 OD
same,OD,[2],90 OD
same,OD,[3],52 OD
same,OD,[4],113 OD
same,OD,[5],90 OD
same,OD,[6],115 OD
same,OD,[7],120 OD
same,OD,[8],132 OD
same,OD,[9],165 OD
same,OD,[10],92 OD
same,OD,[11],92 OD
same,OD,[12],71 OD
same,OD,[13],98 OD
same,OD,[14],78 OD
same,OD,[15],105 OD
same,OD,[16],100 OD
same,OD,[17],98 OD
same,OD,[18],100 OD
same,OD,[19],114 OD
same,OD,[20],112 OD
same,OD,[21],108 OD
same,OD,[22],108 OD
same,OD,[23],98 OD
same,OD,[24],113 OD
same,OD,[25],104 OD
same,OD,[26],87 OD
same,OD,[27],105 OD
same,OD,[28],87 OD
same,OD,[29],98 OD
same,OD,[30],115 OD
same,OD,[31],96 OD
same,OD,[32],87 OD
same,OD,[33],58 OD
same,OD,[34],46 OD
same,OD,[35],104 OD
same,OD,[36],112 OD
same,OD,[37],117 OD
same,OD,[38],44 OD
same,OD,[39],100 OD
same,OD,[40],89 OD
same,OD,[41],78 OD
same,OD,[42],105 OD
same,OD,[43],165 OD
same,OD,[44],94 OD
same,OD,[45],105 OD
same,OD,[46],84 OD
same,OD,[47],110 OD
same,OD,[48],68 OD
same,OD,[49],105 OD
same,OD,[50],98 OD
same,OD,[51],54 OD
same,OD,[52],92 OD
same,OD,[53],68 OD
same,OD,[54],43 OD
same,OD,[55],83 OD
same,OD,[56],160 OD
same,OD,[57],73 OD
same,OD,[58],104 OD
same,OD,[59],88 OD
same,OD,[60],104 OD
same,OD,[61],82 OD
same,OD,[62],71 OD
same,OD,[63],90 OD
same,OD,[64],114 OD
same,OD,[65],71 OD
same,OD,[66],42 OD
same,OD,[67],93 OD
same,OD,[68],96 OD
same,OD,[69],103 OD
same,OD,[70],103 OD
same,OD,[71],110 OD
same,OD,[72],108 OD
same,OD,[73],55 OD
same,OD,[74],78 OD
same,OD,[75],86 OD
same,OD,[76],104 OD
same,OD,[77],104 OD
same,OD,[78],110 OD
same,OD,[79],110 OD
same,OD,[80],120 OD
same,OD,[81],104 OD
same,OD,[82],127 OD
same,OD,[83],45 OD
same,OD,[84],100 OD
same,OD,[85],75 OD
same,OD,[86],92 OD
same,OD,[87],94 OD
same,OD,[88],94 OD
same,OD,[89],71 OD
same,OD,[90],96 OD
same,OD,[91],79 OD

# — patent US20060263802A1 (CRUCELL HOLLAND B V, published 2006)
